Assay [1] addresses human Juno ectodomain, infertility-associated variant H177Q, with C-terminal SpyTag (human) (UniProt A6ND01). Nature of the assay: flow cytometry-based bead-binding assay. Background: In flow cytometry, cells or beads pass a laser one at a time.
For assay [2], the target named is human Juno glycosylated ectodomain (ECD), wild type, with C-terminal SpyTag (human) (UniProt A6ND01). Nature of the assay: flow cytometry-based bead-binding assay.
Assay [3] deals with human Juno ectodomain, infertility-associated variant H177Q, with C-terminal SpyTag (human) (UniProt A6ND01). Nature of the assay: AFM-based single-molecule force spectroscopy.
Assay [4] has as its target human Juno glycosylated ectodomain (ECD), wild type, with C-terminal SpyTag (human) (UniProt A6ND01). Nature of the assay: AFM-based single-molecule force spectroscopy.

Broadly, the Kd is the constant that tells how readily two partners part at equilibrium. Read a high Kd as weaker binding.

“human Izumo1 glycosylated ectodomain (ECD), wild type, with C-terminal SpyTag (from UniProt Q8IYV9 22-292) (domain or fragment)” yielded an equilibrium dissociation constant (Kd) in assay [1] of 64 nM. For the same substance, the dissociation constant Kd in assay [2] turned out to be 45 nM. The same substance came in with an average median peak bond lifetime under clamped force (40-50 pN) in assay [3] of 0.17 s. In assay [4], this substance yielded a median bond lifetime under clamped force (before the slip-to-catch transition) of 0.02 s and a median bond lifetime under clamped force (peak of the catch bond, 40-50 pN) of 0.15 s.
“human Izumo1 ectodomain K150A with C-terminal SpyTag (from UniProt Q8IYV9 22-292) (domain or fragment)” showed a Kd in assay [2] of 110 nM.
